In paper PMC3690482 (Molecular and cellular endocrinology, 2013):

Target: MET (mouse (endogenous in NLT), UniProt P16056 25-1379)
Experiment: co-IP

B1: AXL (receptor, mouse (endogenous in NLT), UniProt Q00993 19-888, looked up)
chain: AHKDTQTEAGSPFVGNPGNITGARGLTGTLRCELQVQGEPPEVVWLRDGQILELADNTQTQVPLGEDWQDEWKVVSQLRISALQLSDAGEYQCMVHLEGRTFVSQPGFVGLEGLPYFLEEPEDKAVPANTPFNLSCQAQGPPEPVTLLWLQDAVPLAPVTGHSSQHSLQTPGLNKTSSFSCEAHNAKGVTTSRTATITVLPQRPHHLHVVSRQPTELEVAWTPGLSGIYPLTHCNLQAVLSDDGVGIWLGKSDPPEDPLTLQVSVPPHQLRLEKLLPHTPYHIRISCSSSQGPSPWTHWLPVETTEGVPLGPPENVSAMRNGSQVLVRWQEPRVPLQGTLLGYRLAYRGQDTPEVLMDIGLTREVTLELRGDRPVANLTVSVTAYTSAGDGPWSLPVPLEPWRPGQGQPLHHLVSEPPPRAFSWPWWYVLLGALVAAACVLILALFLVHRRKKETRYGEVFEPTVERGELVVRYRVRKSYSRRTTEATLNSLGISEELKEKLRDVMVDRHKVALGKTLGEGEFGAVMEGQLNQDDSILKVAVKTMKIAICTRSELEDFLSEAVCMKEFDHPNVMRLIGVCFQGSDREGFPEPVVILPFMKHGDLHSFLLYSRLGDQPVFLPTQMLVKFMADIASGMEYLSTKRFIHRDLAARNCMLNENMSVCVADFGLSKKIYNGDYYRQGRIAKMPVKWIAIESLADRVYTSKSDVWSFGVTMWEIATRGQTPYPGVENSEIYDYLRQGNRLKQPVDCLDGLYALMSRCWELNPRDRPSFAELREDLENTLKALPPAQEPDEILYVNMDEGGSHLEPRGAAGGADPPTQPDPKDSCSCLTAADVHSAGRYVLCPSTAPGPTLSADRGCPAPPGQEDGA
AXL in the MET immunoprecipitate, fold of input lysate: 0.6 fold
